This assay deals with SARS-CoV-2 open reading frame (ORF) 8 (SARS-CoV-2, UniProt P0DTC8 16-121). The experiment in a line: SPR. In general terms: SPR reads the build-up and loss of mass on a sensor chip optically.

This is an account of results in doi:10.1101/2020.12.02.408153 (bioRxiv, 2020).

Usually Kd stands for the constant that tells how readily two partners part at equilibrium. Read a low Kd as a tighter complex.

SARS-CoV-2 open reading frame (ORF) 8, sequence (P0DTC8 16-121): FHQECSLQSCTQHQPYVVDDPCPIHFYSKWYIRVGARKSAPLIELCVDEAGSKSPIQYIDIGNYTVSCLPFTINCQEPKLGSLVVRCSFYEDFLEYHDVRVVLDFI

B1: LL-37 (peptide)
peptide: LLGDFFRKSKEKIGKEFKRIVQRIKDFLRNLVPRTES
With B1, the equilibrium dissociation constant (Kd) came to 290 nM.
